Laboratory results from publication PMC11957191, “The PH domain in the ArfGAP ASAP1 drives catalytic activation through an unprecedented allosteric mechanism” (Research Square, 2025).

How the values were obtained:
[1] = molecular target: T1, ZA domain of ASAP1 (Arf GAP and ankyrin repeat domains), [431–724]ASAP1 (UniProt Q9QWY8 431-724); experiment: NMR intermolecular paramagnetic relaxation enhancement (PRE); Cys159-MTSL myrArf1 with a non-hydrolysable GTP analog on nanodiscs, alone or in complex with wt PH (100 μM), and 100 μM isotopically labeled isolated ZA domain; conditions: both partners purified
T1 construct: Isotopically labelled for the PRE experiment; also called ΔPHZA; isolated ZA domain
T1 sequence (looked up): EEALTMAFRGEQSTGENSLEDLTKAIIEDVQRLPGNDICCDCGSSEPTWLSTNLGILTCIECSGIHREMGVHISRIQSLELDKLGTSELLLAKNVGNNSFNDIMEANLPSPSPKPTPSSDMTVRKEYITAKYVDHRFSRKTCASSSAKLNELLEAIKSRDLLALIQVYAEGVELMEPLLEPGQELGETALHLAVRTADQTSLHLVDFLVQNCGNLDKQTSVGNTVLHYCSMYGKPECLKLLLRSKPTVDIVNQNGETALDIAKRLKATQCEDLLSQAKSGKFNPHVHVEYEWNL

[2] = molecular target: T2, myristoylated human Arf1 (myrArf1), GTP-bound form at a membrane surface (human, UniProt P84077 1-181, N-myristoylated); experiment: other fluorescence titration + other: inhibition of GAP activity; PH domain titrated; (i) rate of mant-GTP dissociation from myrArf1 on LUVs with 5 mol% PI(4,5)P2, followed by FRET from Arf tryptophan to mant-GTP, excess GTP 160 μM; (ii) IC50 of PH domain for GAP activity of 1 nM wt PZA on myrArf1·GTP below the Km; both served as proxies for the affinity; conditions: both partners purified
T2 construct: human Arf1, Uniprot P84077, gene cloned into MCS1 of pETDuet-1; Loaded with GTP, GTPγS or mant-GTP and anchored to MSPΔH5 nanodiscs or LUVs with PI(4,5)P2; Isotopically labelled for NMR; also called myrArf1·GTPγS; Arf·GTP
T2 sequence (P84077 whole entry, the tested form may be a part): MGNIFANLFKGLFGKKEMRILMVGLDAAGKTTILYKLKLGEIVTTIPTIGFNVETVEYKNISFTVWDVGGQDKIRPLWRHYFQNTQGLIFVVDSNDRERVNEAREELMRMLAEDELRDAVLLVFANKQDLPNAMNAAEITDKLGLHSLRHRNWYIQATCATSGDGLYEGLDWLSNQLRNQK

[3] = molecular target: T2, myristoylated human Arf1 (myrArf1), …; experiment: cell-based or functional assay

| Binder | Kd [1] | affinity relative to wt PH [2] | 'in trans' stimulation of GTP hydrolysis by ZA on myrArf1 (LUVs), relative to wt PH [3] |
| --- | --- | --- | --- |
| Cys159-MTSL tagged myrArf1 (natural protein, N-myristoylated; MTSL nitroxide spin label on the native Cys159, also called Arf (in the ZA PRE experiment); source: E. coli, co-expressed with yeast NMT, purified; spin-labelled with MTSL) not shown | 100 to 1000 µM | – | – |
| ΔN14 ASAP1 PH domain, [339–451]ASAP1 (domain or fragment, UniProt Q9QWY8 339-451, looked up, ASAP1 residues 339-451: PH domain without residues 325-338 (the first 14 residues of the wt PH construct); also called ΔN14PH; source: E. coli BL21 Star (DE3) (pET3a) or BL21 (DE3) (pET21), purified (HiTrap SP HP, SEC)) GSEKKGFLLKKSDGIRKVWQRRKCAVKNGILTISHATSNRQPAKLNLLTCQVKPNAEDKKSFDLISHNRTYHFQAEDEQDYIAWISVLTNSKEEALTMAFRGEQSTGENSLED | – | ~0.5 fold of wt PH | 0.01 fold of wt PH |
